These results are taken from patent US20180265573A1 (ICAHN SCHOOL OF MEDICINE AT MOUNT SINAI, published 2018).

Test [1] addresses hemagglutinin of influenza A virus A/Puerto Rico/8/34 (influenza A virus A/Puerto Rico/8/34, UniProt P03452 18-565). Nature of the test: cell-based or functional assay.
The target in test [2] is baculovirus-expressed hemagglutinin of influenza virus A/California/04/09 (H1) (influenza A virus A/California/04/09 …).
Test [3] addresses baculovirus-expressed hemagglutinin of influenza virus A/Solomon Islands/06 (H1) (influenza A virus A/Solomon Islands/06 …).
For test [4], the target named is T1, hemagglutinin of influenza A virus A/Hong Kong/1/68 (H3) (influenza A virus A/Hong Kong/1/68 (H3), UniProt Q91MA7 17-566).
T1 construct: whole, on cells; also called HK68 (H3)
Nature of the test: immunofluorescence on infected, fixed MDCK cells.

B1: monoclonal antibody GG3 (antibody, V domains shown)
VH: QIQLVQSGPELKKPGETVKISCKASGYTFTNYGMNWVKQAPGKGLKWMGWINIYSGESTYVDDFTGRFAFSLETSASTAYLQINNLKNEDMATYFCARSGDTMITAGRSFFAMDYWGQGTSVTVSS
VL: DIQMTQSPSSLSASLGERVSLTCRASQEISGYLSWLQQKPDGTIKRLIYAASTLDSGVPKRFSGSRSGSDYSLSISSLESEDFADYYCLQYANYPWSFGGGTKLEIK
notes: also called mAb GG3; Mab GG3
In general, EC50 (read off the curve) refers to the midpoint of the concentration-response curve. Lower therefore signals an effect from little substance. As to B1, in test [1], the “IC50 (read off the curve), plaque reduction neutralization assay” value was around 1 µg/mL. In addition, the “EC50 (read off the curve)” value in test [2] is around 0.01 µg/mL; in test [3], around 0.007 µg/mL. Also, in test [4], the binding result is given as “no binding (tested: 5 µg/mL)”.
